*1 amine or outer side, *2 acyl side, *3 side chain or, on linkers, in order; H or OH if unused. Where no end group is shown, it is not given here. [ ]: non-standard residue; d: D form. ReO = oxorhenium(V), one metal core binding both hemi-chelators, from trichlorooxobis(triphenylphosphine)rhenium(V); GlyN3 = N-(3-aminopropyl)glycine amide, Cys acylated on the omega-amine, NC(=O)CN(CCCN[*:3])[*:1]; N(2-Aminoethyl)Gly = O=C(CN(CCN[*:3])[*:1])[*:2]

The labels stand for the following.
B1: ReO-GF-1 (peptide)
peptide: CXFWWKTFG
modifications: L-Cys at 1; GABA at 2 (written X); D-Trp at 5; GlyN6 building unit at 9 with L-Cys on its omega-amine; C-terminal amide; ReO (oxorhenium(V)) chelated by the two Cys closes the ring
B2: ReO-GF-34 (peptide)
peptide: CXFWWKTFG
modifications: L-Cys at 1; GABA at 2 (written X); D-Trp at 5; GlyN2 building unit at 9 with D-Cys on its omega-amine; C-terminal amide; ReO (oxorhenium(V)) chelated by the two Cys closes the ring
B3: ReO-GF-15 (peptide)
peptide: CFWWKTFG
modifications: not fully specified; D-Cys at 1; D-Trp at 4; GlyN6 building unit at 8 with L-Cys on its omega-amine; C-terminal amide; ReO (oxorhenium(V)) chelated by the two Cys closes the ring
B4: ReO-GF-20 (peptide)
peptide: CXFWWKTFG
modifications: not fully specified; D-Cys at 1; GABA at 2 (written X); D-Trp at 5; GlyN3 building unit at 9 with D-Cys on its omega-amine; C-terminal amide; ReO (oxorhenium(V)) chelated by the two Cys closes the ring
B5: ReO-GF-3 (peptide)
peptide: CXFWWKTFG
modifications: D-Cys at 1; GABA at 2 (written X); D-Trp at 5; GlyN6 building unit at 9 with L-Cys on its omega-amine; C-terminal amide; ReO (oxorhenium(V)) chelated by the two Cys closes the ring
notes: also called ReO-GF-03; ReO-DCys*-GABA-Phe-Trp-DTrp-Lys-Thr-Phe-GlyN6(LCys*)-NH2
B6: ReO-GF-42 (peptide)
peptide: CGFW[dW]KTF[N(2-Aminoethyl)Gly](dC)-NH2
modifications: bridge (positions not given here) via ReO; not fully specified (bridges); also: N2S2 oxorhenium(V) chelate via the two Cys
B7: ReO-GF-44 (peptide)
peptide: CGFWWKTFG
modifications: not fully specified; D-Cys at 1; D-Trp at 5; GlyN2 building unit at 9 with D-Cys on its omega-amine; C-terminal amide; ReO (oxorhenium(V)) chelated by the two Cys closes the ring
B8: ReO-GF-31 (peptide)
peptide: CFWWKTFG
modifications: not fully specified; D-Cys at 1; D-Trp at 4; GlyN3 building unit at 8 with L-Cys on its omega-amine; C-terminal amide; ReO (oxorhenium(V)) chelated by the two Cys closes the ring
notes: also called ReO-DCys*-Phe-Trp-DTrp-Lys-Thr-Phe-GlyN3(LCys*)-NH2
B9: ReO-GF-19 (peptide)
peptide: CXFWWKTFG
modifications: D-Cys at 1; GABA at 2 (written X); D-Trp at 5; GlyN3 building unit at 9 with L-Cys on its omega-amine; C-terminal amide; ReO (oxorhenium(V)) chelated by the two Cys closes the ring
B10: ReO-GF-18 (peptide)
peptide: CXFWWKTFG
modifications: L-Cys at 1; GABA at 2 (written X); D-Trp at 5; GlyN3 building unit at 9 with D-Cys on its omega-amine; C-terminal amide; ReO (oxorhenium(V)) chelated by the two Cys closes the ring
B11: ReO-GF-26 (peptide)
peptide: CGFW[dW]KTF[GlyN3](dC)-NH2
modifications: bridge (positions not given here) via ReO; not fully specified (bridges); also: N2S2 oxorhenium(V) chelate via the two Cys
B12: ReO-GF-33 (peptide)
peptide: CXFWWKTFG
modifications: L-Cys at 1; GABA at 2 (written X); D-Trp at 5; GlyN2 building unit at 9 with L-Cys on its omega-amine; C-terminal amide; ReO (oxorhenium(V)) chelated by the two Cys closes the ring
B13: ReO-GF-32 (peptide)
peptide: CFWWKTFG
modifications: not fully specified; D-Cys at 1; D-Trp at 4; GlyN3 building unit at 8 with D-Cys on its omega-amine; C-terminal amide; ReO (oxorhenium(V)) chelated by the two Cys closes the ring
B14: ReO-GF-38 (peptide)
peptide: CXFWWKTFG
modifications: L-Cys at 1; beta-Ala at 2 (written X); D-Trp at 5; GlyN2 building unit at 9 with D-Cys on its omega-amine; C-terminal amide; ReO (oxorhenium(V)) chelated by the two Cys closes the ring
B15: ReO-GF-28 (peptide)
peptide: CGFWWKTFG
modifications: not fully specified; D-Cys at 1; D-Trp at 5; GlyN3 building unit at 9 with D-Cys on its omega-amine; C-terminal amide; ReO (oxorhenium(V)) chelated by the two Cys closes the ring
B16: ReO-GF-11 (peptide)
peptide: CGFWWKTFG
modifications: not fully specified; D-Cys at 1; D-Trp at 5; GlyN6 building unit at 9 with L-Cys on its omega-amine; C-terminal amide; ReO (oxorhenium(V)) chelated by the two Cys closes the ring
notes: also called ReO-DCys*-Gly-Phe-Trp-DTrp-Lys-Thr-Phe-GlyN6(LCys*)-NH2
B17: ReO-GF-21 (peptide)
peptide: CXFWWKTFG
modifications: L-Cys at 1; beta-Ala at 2 (written X); D-Trp at 5; GlyN3 building unit at 9 with L-Cys on its omega-amine; C-terminal amide; ReO (oxorhenium(V)) chelated by the two Cys closes the ring
notes: also called ReO-LCys*-βAla-Phe-Trp-DTrp-Lys-Thr-Phe-GlyN3(LCys*)-NH2
B18: ReO-GF-39 (peptide)
peptide: CXFWWKTFG
modifications: D-Cys at 1; beta-Ala at 2 (written X); D-Trp at 5; GlyN2 building unit at 9 with L-Cys on its omega-amine; C-terminal amide; ReO (oxorhenium(V)) chelated by the two Cys closes the ring
B19: ReO-GF-48 (peptide)
peptide: CFWWKTFG
modifications: not fully specified; D-Cys at 1; D-Trp at 4; GlyN2 building unit at 8 with D-Cys on its omega-amine; C-terminal amide; ReO (oxorhenium(V)) chelated by the two Cys closes the ring
B20: ReO-GF-40 (peptide)
peptide: CXFWWKTFG
modifications: not fully specified; D-Cys at 1; beta-Ala at 2 (written X); D-Trp at 5; GlyN2 building unit at 9 with D-Cys on its omega-amine; C-terminal amide; ReO (oxorhenium(V)) chelated by the two Cys closes the ring
B21: ReO-GF-23 (peptide)
peptide: CXFWWKTFG
modifications: D-Cys at 1; beta-Ala at 2 (written X); D-Trp at 5; GlyN3 building unit at 9 with L-Cys on its omega-amine; C-terminal amide; ReO (oxorhenium(V)) chelated by the two Cys closes the ring
B22: ReO-GF-30 (peptide)
peptide: CFW[dW]KTF[GlyN3](dC)-NH2
modifications: bridge (positions not given here) via ReO; not fully specified (bridges); also: N2S2 oxorhenium(V) chelate via the two Cys
B23: ReO-GF-27 (peptide)
peptide: CGFWWKTFG
modifications: not fully specified; D-Cys at 1; D-Trp at 5; GlyN3 building unit at 9 with L-Cys on its omega-amine; C-terminal amide; ReO (oxorhenium(V)) chelated by the two Cys closes the ring

T1 sequence (P30874 whole entry): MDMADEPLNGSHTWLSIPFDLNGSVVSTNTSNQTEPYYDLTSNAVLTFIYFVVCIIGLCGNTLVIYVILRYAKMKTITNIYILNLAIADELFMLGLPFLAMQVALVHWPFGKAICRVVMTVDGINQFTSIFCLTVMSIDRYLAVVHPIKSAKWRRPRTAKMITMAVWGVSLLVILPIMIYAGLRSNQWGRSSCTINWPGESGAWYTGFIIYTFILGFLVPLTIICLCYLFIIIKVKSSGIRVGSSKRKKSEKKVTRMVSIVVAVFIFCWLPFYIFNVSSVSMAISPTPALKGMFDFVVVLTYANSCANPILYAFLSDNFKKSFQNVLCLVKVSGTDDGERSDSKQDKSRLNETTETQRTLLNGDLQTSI

One test relates to SST-R2 and SST-R5.
Assay: not given
The settings on record: activity described in WO 99/65508; cited from earlier work.
As to “*GABA-Phe-Trp-DTrp-Lys-Thr-Phe-GlyC3*-NH2 [PTR 3173]”, the receptor selectivity entry is “selective for SST-R2 and SST-R5”.

The next test concerns the target T1, human cloned SST-R2 (human, UniProt P30874 1-369).
T1 construct: whole, on cells; Assayed as membrane preparations of CHO cells expressing the cloned receptor, not as intact cells; also called hSST-R2; human SST-R2
Kind of test: inhibition of 125I-Tyr11-SRIF-14 binding to membranes of CHO cells expressing cloned human SST-R2.
Details: not given
The protocol:
The SST analogs were tested for their potency in inhibition of the binding of ¹²⁵I-Tyr¹¹-SRIF (based on the method described by Raynor et. al., Molecular Pharmnacology 43: 838, 1993) to membrane preparations expressing the transmembranal SST receptors (SST-R1, 2, 3, 4 or 5). The receptor preparations used for these tests were either from the cloned human receptors selectively and stably expressed in Chinese Hamster Ovary (CHO) cells or from cell lines naturally expressing the SST-R5. Typically, cell membranes were homogenized in Tris buffer in the presence of protease inhibitors and incubated for 30-40 minutes with ¹²⁵I-Tyr¹¹-SRIF with different concentrations of the tested sample. The binding reactions were filtered, the filters were washed and the bound radioactivity was counted in β counter after addition of scintillation colution. Non specific binding was defined as the radioactivity remaining bound in the presence of 1 μM unlabeled SRIF-14.
As a reminder, the IC50 is the concentration that inhibits the measured activity by half. High values mean weaker potency in that assay, low ones greater potency in that assay. For B1, the IC50 was determined as 16 nM.

As to B2, the IC50 is ~100 nM.

For the molecule B3, the half-maximal inhibitory concentration (IC50) is > 10 nM.

For B4, the IC50 came to 10 nM.

For the molecule B5, the 50% inhibitory concentration (IC50) is 6 nM.

In the case of B6, the IC50 is > 10 nM.

As to B7, the IC50 was > 10 nM.

With B8, the IC50 turned out to be 1.6 nM.

In the case of B9, the 50% inhibitory concentration (IC50) is > 10 nM.

In the case of B10, the IC50 was ~10 nM.

Turning to B11, the IC50 was ~10 nM.

Regarding B12, the IC50 is > 10 nM.

With B13, the concentration for half-maximal inhibition (IC50) was 14 nM.

B14: the half-inhibitory concentration (IC50) was > 10 nM.

Regarding B15, the concentration for half-maximal inhibition (IC50) was > 10 nM.

In turn, B16 gave an IC50 of 4 nM.

B17 registered an IC50 of 1 nM.

B18: the IC50 turned out to be 10 nM.

On to B19, for which the IC50 was > 10 nM.

Consider B20, for which the IC50 was > 10 nM.

B21: the IC50 was ~10 nM.

On to B22, for which the IC50 stood at 13 nM.

B23 came in with an IC50 of 20 nM.

Values taken from patent publication US20050226813A1, “Labelled somatostatin analogs backbone cyclized through metal complexation” (priority 2002, published 2005).
